This note sets out measurements from IntAct's records for PubMed 25910212.

B1: Keratin, type II cytoskeletal 6A (Homo sapiens), P02538 (parent)
chain: MASTSTTIRSHSSSRRGFSANSARLPGVSRSGFSSVSVSRSRGSGGLGGACGGAGFGSRSLYGLGGSKRISIGGGSCAISGGYGSRAGGSYGFGGAGSGFGFGGGAGIGFGLGGGAGLAGGFGGPGFPVCPPGGIQEVTVNQSLLTPLNLQIDPTIQRVRAEEREQIKTLNNKFASFIDKVRFLEQQNKVLETKWTLLQEQGTKTVRQNLEPLFEQYINNLRRQLDSIVGERGRLDSELRGMQDLVEDFKNKYEDEINKRTAAENEFVTLKKDVDAAYMNKVELQAKADTLTDEINFLRALYDAELSQMQTHISDTSVVLSMDNNRNLDLDSIIAEVKAQYEEIAQRSRAEAESWYQTKYEELQVTAGRHGDDLRNTKQEIAEINRMIQRLRSEIDHVKKQCANLQAAIADAEQRGEMALKDAKNKLEGLEDALQKAKQDLARLLKEYQELMNVKLALDVEIATYRKLLEGEECRLNGEGVGQVNISVVQSTVSSGYGGASGVGSGLGLGGGSSYSYGSGLGVGGGFSSSSGRAIGGGLSSVGGGSSTIKYTTTSSSSRKSYKH
B2: Ribonucleoside-diphosphate reductase subunit M2 B (Homo sapiens), Q7LG56 (parent)
chain: MGDPERPEAAGLDQDERSSSDTNESEIKSNEEPLLRKSSRRFVIFPIQYPDIWKMYKQAQASFWTAEEVDLSKDLPHWNKLKADEKYFISHILAFFAASDGIVNENLVERFSQEVQVPEARCFYGFQILIENVHSEMYSLLIDTYIRDPKKREFLFNAIETMPYVKKKADWALRWIADRKSTFGERVVAFAAVEGVFFSGSFAAIFWLKKRGLMPGLTFSNELISRDEGLHCDFACLMFQYLVNKPSEERVREIIVDAVKIEQEFLTEALPVGLIGMNCILMKQYIEFVADRLLVELGFSKVFQAENPFDFMENISLEGKTNFFEKRVSEYQRFAVMAETTDNVFTLDADF
partner: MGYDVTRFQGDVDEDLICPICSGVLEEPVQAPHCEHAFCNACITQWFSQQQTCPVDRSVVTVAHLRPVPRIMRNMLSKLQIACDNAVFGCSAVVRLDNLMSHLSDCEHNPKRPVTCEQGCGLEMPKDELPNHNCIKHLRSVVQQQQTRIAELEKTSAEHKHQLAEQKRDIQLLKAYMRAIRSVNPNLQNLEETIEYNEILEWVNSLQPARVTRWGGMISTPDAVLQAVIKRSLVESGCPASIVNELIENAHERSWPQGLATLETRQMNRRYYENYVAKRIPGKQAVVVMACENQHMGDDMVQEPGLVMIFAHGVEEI
B3: Keratin, type II cytoskeletal 6A (Homo sapiens), P02538 (parent)
chain: B1 chain
partner: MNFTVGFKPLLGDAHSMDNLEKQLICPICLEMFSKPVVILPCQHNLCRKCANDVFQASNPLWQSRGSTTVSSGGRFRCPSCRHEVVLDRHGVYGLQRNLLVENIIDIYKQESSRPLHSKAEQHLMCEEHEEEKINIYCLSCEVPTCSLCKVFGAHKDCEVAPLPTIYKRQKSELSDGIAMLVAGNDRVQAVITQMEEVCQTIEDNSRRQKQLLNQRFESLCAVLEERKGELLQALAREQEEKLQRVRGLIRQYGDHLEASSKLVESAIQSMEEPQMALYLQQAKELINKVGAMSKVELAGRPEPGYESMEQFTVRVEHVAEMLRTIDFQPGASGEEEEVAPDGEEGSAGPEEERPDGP
B4: Keratin, type II cytoskeletal 2 epidermal (Homo sapiens), P35908 (parent)
chain: MSCQISCKSRGRGGGGGGFRGFSSGSAVVSGGSRRSTSSFSCLSRHGGGGGGFGGGGFGSRSLVGLGGTKSISISVAGGGGGFGAAGGFGGRGGGFGGGSSFGGGSGFSGGGFGGGGFGGGRFGGFGGPGGVGGLGGPGGFGPGGYPGGIHEVSVNQSLLQPLNVKVDPEIQNVKAQEREQIKTLNNKFASFIDKVRFLEQQNQVLQTKWELLQQMNVGTRPINLEPIFQGYIDSLKRYLDGLTAERTSQNSELNNMQDLVEDYKKKYEDEINKRTAAENDFVTLKKDVDNAYMIKVELQSKVDLLNQEIEFLKVLYDAEISQIHQSVTDTNVILSMDNSRNLDLDSIIAEVKAQYEEIAQRSKEEAEALYHSKYEELQVTVGRHGDSLKEIKIEISELNRVIQRLQGEIAHVKKQCKNVQDAIADAEQRGEHALKDARNKLNDLEEALQQAKEDLARLLRDYQELMNVKLALDVEIATYRKLLEGEECRMSGDLSSNVTVSVTSSTISSNVASKAAFGGSGGRGSSSGGGYSSGSSSYGSGGRQSGSRGGSGGGGSISGGGYGSGGGSGGRYGSGGGSKGGSISGGGYGSGGGKHSSGGGSRGGSSSGGGYGSGGGGSSSVKGSSGEAFGSSVTFSFR
partner: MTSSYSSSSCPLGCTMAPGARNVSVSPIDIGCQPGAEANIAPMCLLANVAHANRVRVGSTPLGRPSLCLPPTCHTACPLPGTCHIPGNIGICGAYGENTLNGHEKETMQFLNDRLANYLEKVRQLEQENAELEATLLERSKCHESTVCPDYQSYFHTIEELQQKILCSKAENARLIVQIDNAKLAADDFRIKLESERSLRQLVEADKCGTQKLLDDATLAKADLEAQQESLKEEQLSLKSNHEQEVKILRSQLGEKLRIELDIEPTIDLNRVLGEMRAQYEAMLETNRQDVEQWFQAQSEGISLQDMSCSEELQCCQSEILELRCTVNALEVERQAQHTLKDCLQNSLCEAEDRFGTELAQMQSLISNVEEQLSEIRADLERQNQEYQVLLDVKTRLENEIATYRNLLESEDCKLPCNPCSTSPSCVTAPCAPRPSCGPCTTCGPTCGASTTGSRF
B5: Progranulin (Homo sapiens), P28799 (parent)
chain: MWTLVSWVALTAGLVAGTRCPDGQFCPVACCLDPGGASYSCCRPLLDKWPTTLSRHLGGPCQVDAHCSAGHSCIFTVSGTSSCCPFPEAVACGDGHHCCPRGFHCSADGRSCFQRSGNNSVGAIQCPDSQFECPDFSTCCVMVDGSWGCCPMPQASCCEDRVHCCPHGAFCDLVHTRCITPTGTHPLAKKLPAQRTNRAVALSSSVMCPDARSRCPDGSTCCELPSGKYGCCPMPNATCCSDHLHCCPQDTVCDLIQSKCLSKENATTDLLTKLPAHTVGDVKCDMEVSCPDGYTCCRLQSGAWGCCPFTQAVCCEDHIHCCPAGFTCDTQKGTCEQGPHQVPWMEKAPAHLSLPDPQALKRDVPCDNVSSCPSSDTCCQLTSGEWGCCPIPEAVCCSDHQHCCPQGYTCVAEGQCQRGSEIVAGLEKMPARRASLSHPRDIGCDQHTSCPVGQTCCPSLGGSWACCQLPHAVCCEDRQHCCPAGYTCNVKARSCEKEVVSAQPATFLARSPHVGVKDVECGEGHFCHDNQTCCRDNRQGWACCPYRQGVCCADRRHCCPAGFRCAARGTKCLRREAPRWDAPLRDPALRQLL
B6: Keratin, type II cytoskeletal 6A (Homo sapiens), P02538 (parent)
chain: B1 chain
partner: B4 partner

In the first assay the parent is B1. As to conditions: with KRT15, P19012.
On to A463P, for which the “effect of a mutation on the interaction” value was “with no effect”.

In a further assay the parent is B1. The note with it: with KRT40, Q6A162.
Sequence of KRT40, Q6A162 (Q6A162 whole entry): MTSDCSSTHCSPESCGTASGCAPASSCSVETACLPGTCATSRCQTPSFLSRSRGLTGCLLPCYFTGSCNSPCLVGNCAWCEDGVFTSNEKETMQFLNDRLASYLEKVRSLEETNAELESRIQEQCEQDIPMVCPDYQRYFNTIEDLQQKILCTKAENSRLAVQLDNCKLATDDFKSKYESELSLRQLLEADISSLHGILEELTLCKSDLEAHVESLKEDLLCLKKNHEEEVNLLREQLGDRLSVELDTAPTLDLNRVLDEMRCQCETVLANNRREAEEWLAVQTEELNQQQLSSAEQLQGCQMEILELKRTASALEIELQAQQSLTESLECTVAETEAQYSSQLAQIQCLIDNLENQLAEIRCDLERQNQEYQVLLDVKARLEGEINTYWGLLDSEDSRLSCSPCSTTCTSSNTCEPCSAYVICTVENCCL
Regarding A463P, the “effect of a mutation on the interaction” value is “with no effect”.

In another assay the parent is B1. The note with it: with k1h1_human KRT31, Q15323.
Sequence of k1h1_human KRT31, Q15323 (Q15323 whole entry): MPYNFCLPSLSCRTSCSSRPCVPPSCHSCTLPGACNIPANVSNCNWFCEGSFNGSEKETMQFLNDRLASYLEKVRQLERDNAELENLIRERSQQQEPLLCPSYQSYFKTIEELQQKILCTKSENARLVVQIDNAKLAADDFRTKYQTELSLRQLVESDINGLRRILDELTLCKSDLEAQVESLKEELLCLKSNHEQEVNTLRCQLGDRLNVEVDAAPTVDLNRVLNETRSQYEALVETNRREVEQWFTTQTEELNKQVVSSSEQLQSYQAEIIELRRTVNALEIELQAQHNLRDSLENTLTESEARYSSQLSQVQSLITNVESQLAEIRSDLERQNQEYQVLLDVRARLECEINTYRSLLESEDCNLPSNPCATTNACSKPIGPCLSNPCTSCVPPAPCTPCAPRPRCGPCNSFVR
Regarding A463P, the “effect of a mutation on the interaction” value is “with no effect”.

In a further assay the parent is B1. The note with it: with tfp11_human TFIP11, Q9UBB9.
Sequence of tfp11_human TFIP11, Q9UBB9 (Q9UBB9 whole entry): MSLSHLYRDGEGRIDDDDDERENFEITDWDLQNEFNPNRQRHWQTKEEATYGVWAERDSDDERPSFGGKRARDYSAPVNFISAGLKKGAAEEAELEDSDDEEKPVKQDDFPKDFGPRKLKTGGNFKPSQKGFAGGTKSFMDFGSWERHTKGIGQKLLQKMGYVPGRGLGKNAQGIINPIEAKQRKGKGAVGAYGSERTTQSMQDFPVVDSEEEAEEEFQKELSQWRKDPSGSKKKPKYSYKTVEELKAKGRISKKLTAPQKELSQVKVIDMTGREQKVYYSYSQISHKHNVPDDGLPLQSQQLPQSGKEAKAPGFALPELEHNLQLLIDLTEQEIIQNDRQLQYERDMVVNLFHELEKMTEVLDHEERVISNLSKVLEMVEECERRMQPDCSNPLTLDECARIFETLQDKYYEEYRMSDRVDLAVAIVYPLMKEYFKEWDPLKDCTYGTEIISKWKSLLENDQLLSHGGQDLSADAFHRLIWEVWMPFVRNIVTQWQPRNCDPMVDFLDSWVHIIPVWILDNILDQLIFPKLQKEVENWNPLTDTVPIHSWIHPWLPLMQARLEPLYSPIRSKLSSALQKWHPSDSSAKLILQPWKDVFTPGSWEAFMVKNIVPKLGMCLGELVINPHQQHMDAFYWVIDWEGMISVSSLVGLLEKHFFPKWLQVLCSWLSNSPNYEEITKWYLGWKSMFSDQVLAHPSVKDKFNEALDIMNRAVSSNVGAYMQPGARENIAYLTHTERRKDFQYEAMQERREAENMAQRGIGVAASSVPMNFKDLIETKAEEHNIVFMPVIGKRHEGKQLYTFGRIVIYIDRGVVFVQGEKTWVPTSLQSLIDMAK
For the variant A463P, the “effect of a mutation on the interaction” value is “disrupting interaction strength”.

The variants in a further assay derive from B1. As to conditions: with KRT40, Q6A162. This is another data set of the same source.
On to A463P, for which the “effect of a mutation on the interaction” value is recorded as “disrupting interaction strength”.

The variants in a further assay derive from B1. The note with it: with goga2_human GOLGA2, Q08379.
Sequence of goga2_human GOLGA2, Q08379 (Q08379 whole entry): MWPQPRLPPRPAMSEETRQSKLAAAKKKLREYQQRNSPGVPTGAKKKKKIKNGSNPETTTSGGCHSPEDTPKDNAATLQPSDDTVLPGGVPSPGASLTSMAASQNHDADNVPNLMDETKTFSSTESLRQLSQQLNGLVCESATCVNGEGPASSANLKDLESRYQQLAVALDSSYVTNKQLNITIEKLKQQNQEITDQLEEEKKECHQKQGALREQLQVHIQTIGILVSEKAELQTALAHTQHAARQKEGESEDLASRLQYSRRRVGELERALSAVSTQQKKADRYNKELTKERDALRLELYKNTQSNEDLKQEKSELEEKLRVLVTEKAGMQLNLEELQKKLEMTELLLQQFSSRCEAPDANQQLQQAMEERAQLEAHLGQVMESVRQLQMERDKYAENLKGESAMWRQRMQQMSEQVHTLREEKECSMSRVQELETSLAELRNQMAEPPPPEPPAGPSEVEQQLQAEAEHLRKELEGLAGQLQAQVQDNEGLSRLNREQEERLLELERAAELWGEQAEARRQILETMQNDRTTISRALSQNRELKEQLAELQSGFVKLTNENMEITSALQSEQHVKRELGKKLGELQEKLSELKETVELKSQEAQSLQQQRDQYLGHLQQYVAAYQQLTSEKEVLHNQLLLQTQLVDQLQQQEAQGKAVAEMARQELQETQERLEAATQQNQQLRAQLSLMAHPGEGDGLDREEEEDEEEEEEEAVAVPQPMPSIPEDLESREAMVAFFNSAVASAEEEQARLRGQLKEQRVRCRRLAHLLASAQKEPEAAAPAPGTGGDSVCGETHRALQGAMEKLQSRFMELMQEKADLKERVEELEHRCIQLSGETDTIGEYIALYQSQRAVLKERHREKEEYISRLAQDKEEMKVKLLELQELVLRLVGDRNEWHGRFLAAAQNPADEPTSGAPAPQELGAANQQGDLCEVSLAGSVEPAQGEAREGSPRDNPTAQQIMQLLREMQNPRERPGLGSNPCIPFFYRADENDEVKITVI
Consider A463P, for which the “effect of a mutation on the interaction” value is listed as “with no effect”.

The variants in a further assay derive from B2. The note with it: with rnf41_human RNF41, Q9H4P4.
In the case of W64R, the “effect of a mutation on the interaction” value was “disrupting interaction strength”. C236F: the “effect of a mutation on the interaction” value is listed as “with no effect”.

In another assay the parent is B3. The note with it: with tri54_human TRIM54, Q9BYV2.
For V523F, the “effect of a mutation on the interaction” value is reported as “with no effect”. In the case of N21S, the “effect of a mutation on the interaction” value was “with no effect”. With F174V, the “effect of a mutation on the interaction” value was “with no effect”. Same read-out and setting: the result for N171K reads “with no effect”.

Take I462S: the “effect of a mutation on the interaction” value is listed as “with no effect”.

F249L: the “effect of a mutation on the interaction” value is recorded as “with no effect”.

Consider T552S, for which the “effect of a mutation on the interaction” value is “with no effect”. For the variant A463P, the “effect of a mutation on the interaction” value was “disrupting interaction strength”.

A further assay covers variants of B3. The note with it: with tri54_human TRIM54, Q9BYV2. The source holds these as a separate data set.
Consider F174V, for which the “effect of a mutation on the interaction” value is listed as “causing an interaction”.

Variants of B4 are the subject of the next assay. As to conditions: with krt38_human KRT38, O76015.
In the case of L484P, the “effect of a mutation on the interaction” value is given as “with no effect”.

In the case of I477N, the “effect of a mutation on the interaction” value is “disrupting interaction strength”. On the same count and under the same terms, the result for N186K reads “with no effect”.

The next assay covers variants of B4. The note with it: with krt38_human KRT38, O76015. This is another data set of the same source.
Consider G219D, for which the “effect of a mutation on the interaction” value is recorded as “with no effect”.

In another assay the parent is B5. As to conditions: with hxa1_human HOXA1, P49639.
Sequence of hxa1_human HOXA1, P49639 (P49639 whole entry): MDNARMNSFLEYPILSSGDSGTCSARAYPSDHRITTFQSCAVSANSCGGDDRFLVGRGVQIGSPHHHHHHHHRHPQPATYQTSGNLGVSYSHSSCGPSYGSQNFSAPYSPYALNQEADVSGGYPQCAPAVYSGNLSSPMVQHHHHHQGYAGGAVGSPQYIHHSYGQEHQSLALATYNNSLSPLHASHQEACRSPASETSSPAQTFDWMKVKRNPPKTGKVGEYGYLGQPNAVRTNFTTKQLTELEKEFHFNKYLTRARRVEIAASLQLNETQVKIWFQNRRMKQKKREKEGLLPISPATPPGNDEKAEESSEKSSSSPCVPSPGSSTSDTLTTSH
Regarding R432C, the “effect of a mutation on the interaction” value was “disrupting interaction strength”.

Turning to A9D, the “effect of a mutation on the interaction” value is reported as “disrupting interaction strength”.

Turning to P451L, the “effect of a mutation on the interaction” value was “with no effect”.

On to P248L, for which the “effect of a mutation on the interaction” value was “with no effect”.

The variants in another assay derive from B5. The note with it: with ARFGAP1, Q8N6T3-3.
Sequence of ARFGAP1, Q8N6T3-3 (Q8N6T3 other isoform, or with tags, fused parts or gaps): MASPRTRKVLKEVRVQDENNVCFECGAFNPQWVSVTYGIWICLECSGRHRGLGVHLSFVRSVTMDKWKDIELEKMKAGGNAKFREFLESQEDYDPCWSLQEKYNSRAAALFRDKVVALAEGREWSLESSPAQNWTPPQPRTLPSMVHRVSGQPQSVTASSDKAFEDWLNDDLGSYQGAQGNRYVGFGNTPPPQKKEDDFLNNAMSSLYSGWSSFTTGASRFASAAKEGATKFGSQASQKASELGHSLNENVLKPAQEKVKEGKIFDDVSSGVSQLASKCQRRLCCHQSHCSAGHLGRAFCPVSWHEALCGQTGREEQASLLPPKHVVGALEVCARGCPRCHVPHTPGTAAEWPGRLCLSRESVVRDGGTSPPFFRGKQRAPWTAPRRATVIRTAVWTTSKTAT
Turning to R432C, the “effect of a mutation on the interaction” value is reported as “disrupting interaction strength”. Still for that read-out and setting: the result for A9D reads “disrupting interaction strength”; that for P451L, “disrupting interaction strength”.

Turning to P248L, the “effect of a mutation on the interaction” value is “with no effect”.

The variants in a further assay derive from B5. As to conditions: with sgta_human SGTA.
For the variant R432C, the “effect of a mutation on the interaction” value is recorded as “disrupting interaction strength”. As for A9D, the “effect of a mutation on the interaction” value is given as “disrupting interaction strength”. P451L: the “effect of a mutation on the interaction” value was “with no effect”.

As to P248L, the “effect of a mutation on the interaction” value is on record as “with no effect”.

Variants of B5 are the subject of another assay. The note with it: with otx1_human OTX1, P32242.
Sequence of otx1_human OTX1, P32242 (P32242 whole entry): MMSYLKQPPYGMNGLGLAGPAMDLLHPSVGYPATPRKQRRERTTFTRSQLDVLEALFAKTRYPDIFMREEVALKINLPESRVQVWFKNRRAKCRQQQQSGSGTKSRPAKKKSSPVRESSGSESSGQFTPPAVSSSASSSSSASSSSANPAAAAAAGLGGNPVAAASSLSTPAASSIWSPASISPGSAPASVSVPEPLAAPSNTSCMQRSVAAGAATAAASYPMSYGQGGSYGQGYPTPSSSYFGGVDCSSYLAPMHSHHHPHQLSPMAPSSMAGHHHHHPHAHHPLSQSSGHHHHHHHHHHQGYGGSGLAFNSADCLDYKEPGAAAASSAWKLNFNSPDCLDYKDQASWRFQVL
With R432C, the “effect of a mutation on the interaction” value is “with no effect”. On the same count and under the same terms, next, A9D: “disrupting interaction strength”; P451L: “with no effect”. Still for that read-out and setting: next, P248L: “with no effect”.

Variants of B5 are the subject of a further assay. The note with it: with ccd33_human CCDC33, Q8N5R6.
Sequence of ccd33_human CCDC33, Q8N5R6 (Q8N5R6 whole entry): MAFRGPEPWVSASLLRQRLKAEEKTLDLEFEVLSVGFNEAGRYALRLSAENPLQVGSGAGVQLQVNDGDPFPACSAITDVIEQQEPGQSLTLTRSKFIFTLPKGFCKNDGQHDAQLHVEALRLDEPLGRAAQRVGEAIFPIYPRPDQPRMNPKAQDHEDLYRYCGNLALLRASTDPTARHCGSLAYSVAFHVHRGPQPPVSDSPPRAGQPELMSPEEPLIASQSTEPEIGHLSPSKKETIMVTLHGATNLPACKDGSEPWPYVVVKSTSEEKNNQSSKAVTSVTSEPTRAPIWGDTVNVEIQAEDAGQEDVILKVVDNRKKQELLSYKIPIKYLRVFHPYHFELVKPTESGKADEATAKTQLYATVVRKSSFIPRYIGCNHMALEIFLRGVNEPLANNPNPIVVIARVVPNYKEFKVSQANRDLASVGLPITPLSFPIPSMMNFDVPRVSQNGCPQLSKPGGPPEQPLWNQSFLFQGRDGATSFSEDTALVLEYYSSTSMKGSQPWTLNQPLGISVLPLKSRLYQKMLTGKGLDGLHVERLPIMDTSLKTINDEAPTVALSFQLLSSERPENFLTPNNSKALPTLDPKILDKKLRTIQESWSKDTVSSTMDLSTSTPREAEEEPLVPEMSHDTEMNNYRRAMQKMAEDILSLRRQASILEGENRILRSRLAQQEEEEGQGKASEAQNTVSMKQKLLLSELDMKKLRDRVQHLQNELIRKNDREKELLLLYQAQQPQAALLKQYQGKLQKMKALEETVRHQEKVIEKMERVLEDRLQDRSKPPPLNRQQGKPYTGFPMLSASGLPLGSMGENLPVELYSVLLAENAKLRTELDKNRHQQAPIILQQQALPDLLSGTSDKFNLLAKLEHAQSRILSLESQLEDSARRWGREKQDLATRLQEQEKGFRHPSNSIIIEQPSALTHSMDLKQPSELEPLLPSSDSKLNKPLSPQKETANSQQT
Consider R432C, for which the “effect of a mutation on the interaction” value was “disrupting interaction strength”.

Turning to A9D, the “effect of a mutation on the interaction” value is recorded as “disrupting interaction strength”.

Regarding P451L, the “effect of a mutation on the interaction” value is reported as “disrupting interaction strength”. As to P248L, the “effect of a mutation on the interaction” value is recorded as “with no effect”.

The variants in the next assay derive from B6. The note with it: with krt38_human KRT38, O76015.
Take V523F: the “effect of a mutation on the interaction” value was “with no effect”. With F249L, the “effect of a mutation on the interaction” value was “with no effect”.

Variants of B6 are the subject of another assay. The note with it: with krt38_human KRT38, O76015. The source holds these as a separate data set.
As for F174V, the “effect of a mutation on the interaction” value is recorded as “with no effect”. On to A463P, for which the “effect of a mutation on the interaction” value is recorded as “with no effect”. Regarding N171K, the “effect of a mutation on the interaction” value is “with no effect”.

Turning to I462S, the “effect of a mutation on the interaction” value is on record as “with no effect”.
